{"source": "the supplement of paper PMC9170038"}
{"test_system": "K4 kissing-loop RNA reporter", "assay": "apparent KD of K4 kissing-loop reporter; higher = weaker reporter binding", "details": "Eterna round: R107; input ligand: FMN 200 uM", "method": "(§1)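 RNA-MaP round R107: designed RNA switches with theophylline, tryptophan, arginine or FMN aptamers are transcribed on-chip within common flanks. They are titrated with a labelled K4 kissing-loop RNA reporter in RNA-MaP buffer (100 mM Tris pH 7.5, 80 mM KCl, 4 mM MgCl2), without ligand or with the indicated ligand. Median apparent KD per design.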", "units": {"apparent KD of K4 kissing-loop reporter": "nM"}}
{"sequence": "GGAUCCACCAGUGAUGUUGGAGAAAACUCCAAGGAUAUGACGAAAGUCAGAAGGUGGUAGACUGGUCAAAGUCCGGUCGGAUCCA [FmnA10 U66]", "apparent KD of K4 kissing-loop reporter": 297}
{"sequence": "UAUUUAAAUAAAAUAAAAUAAAUUGCUGAUACCAGAGCCAAUUGGCUCCCUUGGCAGCGGAUCGAGUGAUGUUCGUAAAAUUUAU [AK2 SS Theophylline A]", "apparent KD of K4 kissing-loop reporter": 28.5}
{"sequence": "GCCUGUGCGCGAAGGAGCGCCGUGACAGGUUACUGCCUUGGGCAGUGAUGUUGCUCAAUCUGGCAGGUAGGUCGCGUGCACAGGC", "apparent KD of K4 kissing-loop reporter": 236}
{"sequence": "AGCAUUUUCAGAAGGAGCGUGAAUUAUUCAUAAUUAUAUUAUACGAGUGAUGUUCGUAUUUCACAGGUAGGUCGCUGAUAUAGCA [JR_SSArginiB_Sub002]", "apparent KD of K4 kissing-loop reporter": 51.4}
{"sequence": "AGUUUAGAGUGACUCGAUAAGAGUCACAAACGAGGACCGGUACGGCCGCCACUCGAAAUAACGAGAGUGAUGUUCUCGCUGGGCA [FiskerMod 3 - Jieux - Same State Tryptophan A]", "apparent KD of K4 kissing-loop reporter": 332}
{"sequence": "UUGGAGUGAUGUUCCAUAUCUUGAGCCGAAGGAGCGGCAUUAUUGCCAGGUAGGUCGCGGCAGAAGGUACCAGUGAUGUUGGAAA [Same State Arginine A GF 4]", "apparent KD of K4 kissing-loop reporter": 136}
{"sequence": "AAUGUACAAGUGAUGUUUGUACUUUCCGAAGGAGCGUCUAAUAAGACAGGUAGGUCGCGGAUUCUCUUAAUUAUCAGGUCAUUAA [JR_ExcArginiA_Sub017]", "apparent KD of K4 kissing-loop reporter": 89.6}
{"sequence": "AGUGAUGUAUGGCGGUGUGUCGCUUAAAAUCAGGAUAUAUAAACAAAUAGAAGGGAUGGCGGAGUGAUGUUCCGCCGGCCGCCAU [FMN A Exl V2]", "apparent KD of K4 kissing-loop reporter": 127}
{"sequence": "UAAUUUAUGUCUUUAAUAUAAUUUUCAGAUACCAGUGAUUAUUAACACCCUUGGCAGCUGUGUAGAGUGAUGUUCUCAUGCUUAA [#07 K4 Theophylline A Exclusion]", "apparent KD of K4 kissing-loop reporter": 307}
{"sequence": "GGAUAGGAUAGAGGAUAUGGCUUACGCAGAAAUAACUUAUUGUGUAAAUCCAUAGGGAGUGAUGUUCCAGAAGGCUGUCCUAUCG [MatMod 17 - Jieux - Exclusion - FMN B]", "apparent KD of K4 kissing-loop reporter": 415}
{"sequence": "UUUUAAUGCAGUGAUGUUGCUAAUAAAACAGAGGAUAUGCAUGGAAGCAGAAGGCUGAUAUAUUAUACUUUAAUAUAUUAUAUUU [JR_SSFMNA_Sub011]", "apparent KD of K4 kissing-loop reporter": 77.8}
{"sequence": "CGUUUAUAGGAGGAUACCAGUACGGAUAAAGUACGUUAAUAGUAGAGUGAUGUUCUAAAGUACCCUUGGCAGCUUAGAGUGAGUG [ExTheophylB.N]", "apparent KD of K4 kissing-loop reporter": 100}
{"sequence": "GAUGAAUGCGGAAGGAGCGAGUUUUUGGGAGUGAUGUUCCCUGCAUAUGCACGUGGGAAAGCUCAGGUAGGUCGCCGCGCUUGUU [Same State Arginine B GF 28]", "apparent KD of K4 kissing-loop reporter": 183}
{"sequence": "UUGGCUGGACGGGAUACCAGCCAAAUCGUGUGCUUAGGAUGUCUAAGAGCCAGUGAUGUUGGCCCUUGGCAGCCCUCCUAGCUUG [Ordigear]", "apparent KD of K4 kissing-loop reporter": 154}
{"test_system": "K4 kissing-loop RNA reporter", "assay": "apparent KD of K4 kissing-loop reporter; higher = weaker reporter binding", "details": "Eterna round: R107; input ligand: arginine 13.2 mM", "method": "as §1", "units": {"apparent KD of K4 kissing-loop reporter": "nM"}}
{"sequence": "AUGGUUGUCGUAGGAUAUGUAGGAUAUUCUAAAAUAUGAAGUGAUGUUUCUAUAAUAAGAAGAAGGACAGAAGGACGAUAACCAC [FmnBS 1 - SaraBot transfer #DoubleAptamer]", "apparent KD of K4 kissing-loop reporter": 104}
{"sequence": "AGCUAGUACGCAGGAUAUUGAACAUCAUUUAGUGAGAUCGAGUGAUGUUCGAUCACGACUUCAGUUCGAGAAGGGCGUACUAGCA [#02 K4 FMN B Same State]", "apparent KD of K4 kissing-loop reporter": 663}
{"sequence": "AGUGAUGUGGGAAGGAGCGCUAUAAGACUUCAGUGAUGUUGAAGUGCUGGUUUAGUGUUGUAGCAGGUAGGUCGCCUAGAUGUUA [KL-XARG-B11]", "apparent KD of K4 kissing-loop reporter": 239}
{"sequence": "UUCCUAUUAUUAACACUAUAUACAACUGAAGGAGCGACAAUAAAGUCAGGUAGGUCGCAGAAUUAAUGAGUGAUGUUCAUUUUUA [JR_ExcArginiA_Sub013]", "apparent KD of K4 kissing-loop reporter": 141}
{"sequence": "GGAUGGUAGGCGGCCGCCACUAAAACUGAACAAAUAUAAACCAGUGAUGUUGGUAUGAUGAAGUAUAGGACCGGGCCUAGAUAGA [Exclusion - Tryptophan B (Freestyle 1)]", "apparent KD of K4 kissing-loop reporter": 134}
{"sequence": "GGGAGGAAAAUUUUCCUCAAAAGUUGGCUACAGGAUAUCGUGGGAAUGAGAAGGGUAACCGAGACGCCCAGUGAUGUUGGGUGCC [Antegete]", "apparent KD of K4 kissing-loop reporter": 247}
{"sequence": "AAGCAGUCUCUUGUAGUCAUCGAAGAUGAACGAGGACCGGUACGGCCGCCACUCGGAGUGAUGUUCCGAAGGCUGCAAAAUAAAA [MatMod 18 - Jieux - Exclusion - Tryptophan A]", "apparent KD of K4 kissing-loop reporter": 297}
{"sequence": "AAUUAAUACAGAAGGAGCGUGUUUUUUAAUUUAUUUUCAUGAUCGAGUGAUGUUCGAUAUACACAGGUAGGUCGCUGUAUAUUUA [JR_SSArginiB_Sub008]", "apparent KD of K4 kissing-loop reporter": 142}
{"sequence": "AUUUGUUUAUGUGAUACCAGACUUUGCAGUGAUGUUGCUUUUAUUUUUGAAUUUUAAAUAGUCCCUUGGCAGCACUAUGUAUUUA [JR_SSTheophyB_Sub009]", "apparent KD of K4 kissing-loop reporter": 132}
{"sequence": "GGUGCUGUCUGUGCCGCCCUCCUCGUCCCUCGAGGACCGGUACGGCCGCCACUCGAGUGAUGUUCGGGUAGCCCUCCCUGCCAGC [BDazzled - #21 Exc. Tryptophan A]", "apparent KD of K4 kissing-loop reporter": 402}
